Measurements as given in PMC8511049, “hSSB2 (NABP1) is required for the recruitment of RPA during the cellular response to DNA UV damage”.

Tests used:
[1] = target: T1, hSSB2-OB (NABP1 OB domain) (human, UniProt Q96AH0 1-132); assay: SPR competition; competes with immobilised biotinylated wild-type ssDNA; 2 mM MgCl2; SPR: 20 mM Tris pH 7.0, 50 mM NaCl, 2 mM MgCl2, 0.01% P20, 2 mM DTT; EMSA: 20 mM Tris pH 7.5, 100 mM NaCl, 1 mM DTT, 100 µg/mL BSA, 37 °C; agarose shift: 10 mM; settings: protein: recombinant; tags: GST tag (pGEX-6P) removed by HRV3C protease; blunt, central 2-nt mismatch (TT opposite CC; S3 positions 11-12)
[2] = target: T1, hSSB2-OB (NABP1 OB domain); assay: SPR competition; competes with immobilised biotinylated wild-type ssDNA; value only in figure; 2 mM MgCl2; SPR: 20 mM Tris pH 7.0, 50 mM NaCl, 2 mM MgCl2, 0.01% P20, 2 mM DTT; EMSA: 20 mM Tris pH 7.5, 100 mM NaCl, 1 mM DTT, 100 µg/mL BSA, 37 °C; agarose shift: 10 mM; settings: protein: recombinant; tags: GST tag (pGEX-6P) removed by HRV3C protease; single strand
[3] = target: T1, hSSB2-OB (NABP1 OB domain); assay: EMSA; SPR: 20 mM Tris pH 7.0, 50 mM NaCl, 2 mM MgCl2, 0.01% P20, 2 mM DTT; EMSA: 20 mM Tris pH 7.5, 100 mM NaCl, 1 mM DTT, 100 µg/mL BSA, 37 °C; agarose shift: 10 mM; settings: protein: recombinant, tags: GST tag (pGEX-6P) removed by HRV3C protease, label: 32P
[4] = target: T1, hSSB2-OB (NABP1 OB domain); assay: SPR competition; almost same affinity as undamaged GATTGC; value only in figure; 2 mM MgCl2; SPR: 20 mM Tris pH 7.0, 50 mM NaCl, 2 mM MgCl2, 0.01% P20, 2 mM DTT; EMSA: 20 mM Tris pH 7.5, 100 mM NaCl, 1 mM DTT, 100 µg/mL BSA, 37 °C; agarose shift: 10 mM; settings: protein: recombinant; tags: GST tag (pGEX-6P) removed by HRV3C protease; single strand

T1 sequence (Q96AH0 1-132): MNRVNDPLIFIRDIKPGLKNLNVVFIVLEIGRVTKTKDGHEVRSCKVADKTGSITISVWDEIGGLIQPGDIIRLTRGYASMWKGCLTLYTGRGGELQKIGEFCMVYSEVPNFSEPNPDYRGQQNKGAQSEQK

B1: 23mer duplex with 2-nt bubble (dsDNA)
DNA 1: CGAACGATCATTACTAGCTCCAA
DNA 2: TTGGAGCTAGTCCTGATCGTTCG
Ki [1]: 1000 nM

B2: 6mer GATTGC wild-type (ssDNA)
DNA: GATTGC
binding result [2]: binds

B3: 50mer ssDNA (EMSA) (ssDNA)
DNA: CCTCGAGGGATCCGTCCTAGCAAGCCGCTGCTACCGGAAGCTTCTGGACC
binding result ([3]; single strand): binds

B4: 50 bp dsDNA (EMSA) (dsDNA)
DNA 1: CCTCGAGGGATCCGTCCTAGCAAGCCGCTGCTACCGGAAGCTTCTGGACC
DNA 2: GGTCCAGAAGCTTCCGGTAGCAGCGGCTTGCTAGGACGGATCCCTCGAGG
binding result ([3]; blunt): no binding

B5: 6mer GATTGC with CPD (ssDNA)
DNA: GATTGC
modifications: cyclobutane pyrimidine dimer between T3 and T4
binding result [4]: binds
